In US20250304667A1 (ALLERGAN, published 2025):
Changes are numbered by the printed parent chain. Where two headings read alike, the source gives them in different places. Each block holds one molecule with its values, some of them ahead of it.

Key:
[1] = biological target: Soluble C5b-9 (CompTech, A127) (UniProt P01031); test: BLI (Octet), antibody amine-coupled to AR2G tips, soluble C5b-9 at 30 ug/ml, 300 s association (Example 8)
[2] = biological target: Soluble C5b-9 (CompTech, A127) (UniProt P01031); test: as above; remark: listed apart in the source
[3] = biological target: insoluble C5b-9 complex deposited on IgM-coated ELISA plates after complement activation of normal human serum (human) (UniProt P01031); test: ELISA on C5b-9 deposited on IgM-coated plates from 2% normal human serum, anti-mouse HRP, Abs 450nm (Example 7)
[4] = biological target: T1, human complement Component 5 (C5) (human, UniProt P01031 19-1676, limits assumed); test: cell-based or functional assay
T1 sequence (P01031 19-1676 limits assumed): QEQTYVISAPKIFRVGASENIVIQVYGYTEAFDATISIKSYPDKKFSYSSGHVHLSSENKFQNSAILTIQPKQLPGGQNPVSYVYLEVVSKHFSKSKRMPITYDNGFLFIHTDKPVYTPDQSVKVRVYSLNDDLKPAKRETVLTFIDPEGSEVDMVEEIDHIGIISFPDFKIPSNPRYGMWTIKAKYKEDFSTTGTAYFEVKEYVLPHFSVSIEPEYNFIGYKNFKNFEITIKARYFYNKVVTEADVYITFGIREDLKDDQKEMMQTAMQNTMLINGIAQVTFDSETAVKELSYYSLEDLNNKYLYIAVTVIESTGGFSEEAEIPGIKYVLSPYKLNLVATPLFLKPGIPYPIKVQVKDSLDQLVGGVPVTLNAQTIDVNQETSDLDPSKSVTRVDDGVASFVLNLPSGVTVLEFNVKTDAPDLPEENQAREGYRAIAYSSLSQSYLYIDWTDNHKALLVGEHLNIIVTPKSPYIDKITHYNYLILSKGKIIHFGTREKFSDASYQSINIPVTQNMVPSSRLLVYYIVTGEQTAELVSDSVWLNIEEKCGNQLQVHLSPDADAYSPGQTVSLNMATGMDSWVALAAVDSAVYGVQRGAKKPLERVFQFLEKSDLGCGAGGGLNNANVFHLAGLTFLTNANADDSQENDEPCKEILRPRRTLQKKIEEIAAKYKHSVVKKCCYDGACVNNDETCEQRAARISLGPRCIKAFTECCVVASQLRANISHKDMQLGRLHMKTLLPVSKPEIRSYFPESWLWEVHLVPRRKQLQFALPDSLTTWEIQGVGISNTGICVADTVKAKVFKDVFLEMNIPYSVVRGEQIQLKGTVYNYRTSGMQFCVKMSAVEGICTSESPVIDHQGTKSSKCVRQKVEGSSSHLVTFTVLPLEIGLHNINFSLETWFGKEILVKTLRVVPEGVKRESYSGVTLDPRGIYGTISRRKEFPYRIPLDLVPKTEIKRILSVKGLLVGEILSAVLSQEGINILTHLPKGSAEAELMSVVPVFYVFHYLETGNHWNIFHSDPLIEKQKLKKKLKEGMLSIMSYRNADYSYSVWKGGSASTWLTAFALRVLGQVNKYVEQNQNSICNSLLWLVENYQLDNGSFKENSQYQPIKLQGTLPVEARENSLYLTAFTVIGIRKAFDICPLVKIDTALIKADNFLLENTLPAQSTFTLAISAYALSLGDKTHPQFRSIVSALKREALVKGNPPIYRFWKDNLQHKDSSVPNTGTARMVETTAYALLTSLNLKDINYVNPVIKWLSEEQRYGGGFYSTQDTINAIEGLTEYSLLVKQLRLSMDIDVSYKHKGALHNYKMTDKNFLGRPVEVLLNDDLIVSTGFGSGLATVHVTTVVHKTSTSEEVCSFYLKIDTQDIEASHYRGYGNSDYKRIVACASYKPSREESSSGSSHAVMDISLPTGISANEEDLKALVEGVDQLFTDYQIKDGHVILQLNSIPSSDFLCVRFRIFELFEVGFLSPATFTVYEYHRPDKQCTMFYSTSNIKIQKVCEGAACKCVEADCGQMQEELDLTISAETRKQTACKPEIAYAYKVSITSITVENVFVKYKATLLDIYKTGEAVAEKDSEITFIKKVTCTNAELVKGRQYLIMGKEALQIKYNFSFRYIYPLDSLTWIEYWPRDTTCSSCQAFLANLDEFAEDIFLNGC

[5] = biological target: T1, human complement Component 5 (C5); test: cell-based or functional assay; remark: listed apart in the source
[6] = biological target: T1, human complement Component 5 (C5); test: cell-based or functional assay; remark: listed apart in the source
[7] = biological target: T1, human complement Component 5 (C5); test: cell-based or functional assay; remark: listed apart in the source

Displacement @ 300s. [1]: 0.86 nm
Displacement @ 300s. [2]: 0.67 nm
EC50 (read off the curve) [3]: 0.04 µg/mL
Molecule: anti-C5b-9 mouse monoclonal antibody (Quidel A239)

IC50 (read off the curve), % Inhibition [6]: ~2 µg/mL
IC50 (read off the curve), OD (450nM) [7]: ~0.4 µg/mL
B2: H5L4-Fab (Fab, V domains shown)
VH: QVQLKQSGAEVKKPGASVKVSCKASGYTFTDEYMNWVRQAPGKSLEWMGYINPNNGGADYNQKFQGRVTMTVDQSISTAYMELSRLRSDDTAVYFCARLGYSNPYFDFWGQGTLVTVSS
VL: DIVLTQSPATLSLSPGERATLSCRASQDVNTAVAWYQQKPGKSPKLLIYWASTRHTGVPARFTGSGSGTDYTLTISSLQPEDFAVYFCQQHHVSPWTFGGGTKVEIK

IC50 (read off the curve), % Inhibition [4]: ~3 µg/mL
IC50 (read off the curve), OD (450nM) [5]: ~0.5 µg/mL
B6: H5L4-IgG (antibody, V domains shown)
VH: B2 VH
VL: B2 VL

IC50 (read off the curve), % Inhibition [6]: ~2 µg/mL
IC50 (read off the curve), OD (450nM) [7]: ~0.4 µg/mL
B7: H5L3-Fab (Fab, V domains shown)
VH: B2 VH
VL: B2 VL with A9S, T10F, L13A, P15V, E17D, A19V, L21I, S22T, R24Q, Q37L

Continued, molecule first:

B1: H1L3-IgG (antibody, V domains shown)
VH: B2 VH with K5V, K43Q
VL: B2 VL with A9S, T10F, L13A, P15V, E17D, A19V, L21I, S22T, R24Q, Q37L
IC50 (read off the curve), % Inhibition [4]: ~3 µg/mL
IC50 (read off the curve), OD (450nM) [5]: ~0.5 µg/mL

B3: H3L3-Fab (Fab, V domains shown)
VH: B2 VH with K5V, K43Q, Q62P, K63S, F64L, Q65K, G66S, M70I, T71S
VL: B2 VL with A9S, T10F, L13A, P15V, E17D, A19V, L21I, S22T, R24Q, Q37L
IC50 (read off the curve), OD (450nM) [7]: ~0.5 µg/mL

B4: H1L4-Fab (Fab, V domains shown)
VH: B2 VH with K5V, K43Q
VL: B2 VL
IC50 (read off the curve), % Inhibition [6]: ~2 µg/mL
IC50 (read off the curve), OD (450nM) [7]: ~0.4 µg/mL

B5: H1L4-IgG (antibody, V domains shown)
VH: B2 VH with K5V, K43Q
VL: B2 VL
IC50 (read off the curve), % Inhibition [4]: ~3 µg/mL
IC50 (read off the curve), OD (450nM) [5]: ~0.5 µg/mL
